# Results from the DeepSol protein solubility set.
# Experiment: soluble on expression in E. coli; label from the status in PepcDB or PDB records
row,Sequence,soluble on expression in E. coli
1,MGSDKIHHHHHHAQQKVEILPFGNMDQWVTREIKESGIIGGNTKKVYAIGPTETIVGAKPYANKGGSPWGTSNVMARVSGITKTNTSVFPETRGDGFCARLDTRMESVKVLGIVDITVLAAGSMFLGTVHEPIKSTKNPNKMLQMGIPFTDRPSAIQFDYKVKMSDRENRIRATGFSKITDVPGKDFPAVILLLQKRWEDAKGNVYAKRIGTMVNYYYHSTDWKNGSKYDIMYGDITKDPAYKAHMMRLQASEYFTVNSKGESVPIHEVAWGEADDVPTHMILQFTSSHGGAYIGSPGNSLYIDNVKLIY,not soluble
2,MGSDKIHHHHHHMKTVLDVKNLSVDFAQDGRIVHAVRGVSFHVGKGETVALVGESGSGKSVTALSSVDLLPPSAQLNGSITYNGEQMIGASEAALRRVRGNDISFIFQEPMTSLNPLHTLERQITESLTLHQGLRGQAARDRIIQLLTKVGIRDPETRLGAYPHQLSGGQRQRVMIAMALANGPELLIADEPTTALDVTIQAQILDLLAELKRRERMSLLFITHDLAIVRRIADRVCVMQGGEIVEQGPTKTIFDNPQHPYTQKLLGAEPSGRPDPVPEDAKEILTTDKLRIWFPIQRGLLRRTVGHVKAVNEATLSVRQGETLGVVGESGSGKTTLALAIMRLIRSEGPIDFMDQHIPSLGKTELRTLRRDIQIVFQDPFGSLSPRMTIEQIVAEGLTVQGVNSTGRRRRVSEILEEVGLDPAMMHRYPHEFSGGQRQRIAIARAMILRPKLVVLDEPTSALDMTVQVQIVDLLRRLQRDHKLAFLFISHDLKVVRALSHKVMVMKQGDVVEAGRTEDLFANPRTTYTRELMKAAFGDASAA,not soluble
3,MSLREINMLRNISSCLFPHISTITSPNHYLSEWDDWEKQGLPEEQRTEAVRRLRACLTSKGHKLDLRALALSSLPVLPACIKKLDVSCNKLTILTDLPENIKELIARDNFLTHISALPHYLITLDVSENQLENLPLLPDTIKSLSAEYNRLSTLPSLPLNLKKLEVRNNELQTLPSLPSNLKILKVAHNHLTELPPLPRRLQLLFAYSNRLSNLPNIQENIIMRRFFYFENNQITTIPTNLFRLDPHITIEIANNPLSDQTLLFLIQQTSVPNFNGPQFRISLSDEGHHHHHH,soluble
4,SASASTQPAALSAEQAKVVLAEVIQAFSAPENAVRMDEARDNACNDMGKMLQFVLPVATQIQQEVIKAYGFSCDGEGVLKFARLVKSYEAQDPEIASLSGKLKALFLPPMTLPPHGPAAGGSVAAS,soluble
5,GSNRAIRTEKIICRDVARGYENVPIPCVNGVDGEPCPEDYKYISENCETSTMNIDRNITHLQHCTCVDDCSSSNCLCGQLSIRCWYDKDGRLLQEFNKIEPPLIFECNQACSCWRNCKNRVVQSGIKVRLQLYRTAKMGWGVRALQTIPQGTFICEYVGELISDAEADVREDDSYLFDLDNKDGEVYCIDARYYGNISRFINHLCDPNIIPVRVFMLHQDLRFPRIAFFSSRDIRTGEELGFDYGDRFWDIKSKYFTCQCGSEKCKHSAEAIALEQSRLARLD,soluble
6,MSLSDNITIKDVRTYSVSAEGGGDYHLQEKGHWITDTYISNPMSMYPDYKKTRTSWGIGVLGSVVVEIELSNGIVGVATGLGGEPACWLIQHHFKRFLINQSPKNLNLIWDQMFKASMFYGRKGITICAISVVDLALWDSLGILRDEPVWQMIGGKVRDEIHFYCTGPLPVETRKMGFWGSKVPLPFGPGDGHEGLEKNYEYLKKHRDSVPEKFPLMVDCYMSLNVQYAIQLAKRCEDLNINWWEEVLHPDDIDGYKQIKLAHPDKKWTTGEHEYTRYGFRQLIETRSIDILQPDVMWVGGMTELLKISAMAAAYDLPVVPHGSGPYSSHFIFSQPHSPFCEYIAGSPDGKKVIKMFPYFDGEQLPENGKIKPSYDPGFGMKIANKDTLIEIKQNEGHHHHHH,soluble
7,MKAVIAKNEEQLKDAFYVREEVFVKEQNVPAEEEIDELENESEHIVVYDGEKPVGAGRWRMKDGYGKLERICVLKSHRSAGVGGIIMKALEKAAADGGASGFILNAQTQAVPFYKKHGYRVLSEKEFLDAGIPHLQMMKD,soluble
8,MGSDKIHHHHHHMPKTISEQNLLRLIDTLVNEGKRVIGPKAAGTMTLYEPLATGEELNLGELPRRSAKETFFPLCETILTYERDREGVRVTDVDPGAIPETVLVAARPCDVAAAPVLDSVFSWDYQDEFYLSRRGKTTIIGLACARADDACFCTAVGLSTNDTKGSDLFLTTLTGGGYRCDVITDKGMALLAAHGGLFAEGDGTPAPLAEPALGKLDLEKIKQWLDNHFEDPLWEEIAERCAGCGACAFLCPACHCFDINDEGGEKKGARRKSWDACGFGKFTNHASGHNPRDVQPQRYRNRIMHKFKYYVDKFDQRLCTGCGRCIRACPVGIDIAEILSAIGTRDQGPGTGKD,not soluble
9,AVVITDRQNRIIKVNNEFTRLSGYTFEDVKGKQPSIFASGLHKVEFYMQMWKALQDNGVWEGEVINKRKDGESITEILRIQSIRDEDNVIQFYVASFVDIS,not soluble
10,AIADEVKECLRDFPKEARELYLNDAVPYLDEPLSPLQFYRDWIGPNKPCIIRNAFNDWPALSKWNPTYLREKVGSKVISVAVTPNGFADAVNGNRFVMPEERQMSFSSLLDIVEGKIKSSAVFYVQKQCSNLMEEIPELTGDVQTHIPWMSEALGKLPDAVNFWLGEESAVTSMHKDHYENLYCVISGQKEFILLPPTDRPFIPYELYQPATYRQKDDGTFEIVDEENSPKVPWIPLDPLKPDFERFPSYRHAKALHCTVKAGEMLYLPSLWFHHVRQSHGCIAVNFWYDMEYDIKYNYFQLVEALTNAVGSL,soluble
11,MGSDKIHHHHHHMNCKELQLSPELTQALGEGDVFSRVMALGGEVFRDVPGRKTVRVQLAGQPYFIKQHFGVGWGEIFKNLLAFKVPIVSANTEKQAIEKLGEIGIATTPLAGFGSRGCSPASRQSFLITHDLGDILSLETLADQWMQSPPEPRFKRRLLMEVATLAARLHDSGLNHRDFYICHICLDLPRLRHGDIHLYLIDLHRVGIRETIRPQDRMKDIAALYFSAMNAGLVTRDYLRFLRRYRGKPIRQVMREERDFWQQVQARAIKLYIKLHKVEPGLHQIGGMIG,not soluble
12,MAHHHHHHMPVSHHEGCGCKNSDEVLKGGEFLLKYINIDKVTALNEKTHGSCRKILKSYDNRLSPDNCESDVDHELIINIPFNSPCKISSLFLIGGEEGTYPRKIKIFSNREDIDFGNINDFKCVQELELSQDFHGSIEYPLKVTSLFNVSYLTLYFYENYGADTTKIFYIGLKGVGTNYIRKAVETVYEASPNLSDHKIEGSSKAAHFRFDAF,soluble
13,MGSDKIHHHHHHMRRLRKALAAGSFLFRGTFVQSDPIPARARRPIMMLEHIQARTHHARRGALRNSFTYGVDYVLTDLGPAGPLLISRNRFNLWSLWDHRHGGARDNGHGVHWFRSLLQERGLATENAQLLLLTQPSFLWFHFNPVSFWIALVDGTPRAFVAEVNSTFGQRHCYFCARDGFAPIRKSDTLIAEKLMHVSPFQRIAGHYAFNFGMTDTQIDIRISFENGDHGVLATLSGERRPATSASLAWAAIRRPLGAARVLALIHWQAAILYLKRAPFLKKQHPPEHLVSDGYDLRGTKE,not soluble
14,MSLSRVRLVIAQCTVDYIGRLTAHLPSARRLLLFKADGSVSVHADDRAYKPLNWMSPPCWLTEESGGQAPVWVVENKAGEQLRITIEGIEHDSSHELGVDPGLVKDGVEAHLQALLAEHIQLLGEGYTLVRREYMTAIGPVDLLCSDERGGSVAVEIKRRGEIDGVEQLTRYLELLNRDSVLAPVKGVFAAQQIKPQARILATDRGIRCLTLDYDTMRGMDSGEYRLFEGHHHHHH,soluble
15,MGSDKIHHHHHHMSTRESRHPVVSRSQWLAARYYLWLHEKAFTHHRDALTAARRALPWVKVEQDYRFFGPNGALSLADLFAGRSQLLLYHFMFAEGWSEGCPGCSFLADHYDGANLHLAHHDVSLVAVSRAPYAEFQAFRQRMGWQFPWYSSHGSDFNEDFGVSVGSEGQRQYNYEPYEGNESELPGLSAFFREGDGSVYHTYSTYARGLDILVNTYNFLDIAPLGRNEGGTMDWVRHHDRYEGQPDKPHCCHR,not soluble
16,MGSDKIHHHHHHMDRINYKHLHYFWHVARAGSVTRAAGQLNVSMQTISGQITKLEQQLGRSLFRQQGRGLALTEAGRLALDYADRIFLLGEELETALADPLLDQTLRLAAGISDVVPKGIASRLLRPALRTNGRLRLSCGEGDFDELIGELGRHRLDLVLADRPVASGEQQQFQSWPLLRCPVQLLAAPELHARCQAGFPASLEQAPLLLPSRDNVLRRQLEHWFDANGVRPDLVGEFDDHALMETFARQGLGLLPAPVSPDGEADHPGLLPLGALDGVWEHYYVTASRRKLQHPALQAILQAWT,not soluble
